Patent US20120316071A1

Experiments:
[1] = biological target: rHuman Notch-1/Fc Chimera, CF (R&D Systems Cat#3647-TK) (human) (UniProt P46531); assay: ECL multispot (MSD) binding assay, antigen spotted on plate, Fab in solution; blank spot 237
[2] = biological target: rHuman ErbB2/Fc Chimera, CF (R&D Systems Cat#1129-ER) (human) (UniProt P04626); assay: as above
[3] = biological target: rHuman Erythropoietin R/Fc Chimera, CF (R&D Systems Cat#963-ER) (human) (UniProt P19235); assay: as above
[4] = biological target: rHuman IGF-1 sR, CF (R&D Systems Cat#391-GR) (human) (UniProt P08069); assay: as above
[5] = biological target: rHuman EGF R/Fc Chimera, CF (R&D Systems Cat#344-ER) (human) (UniProt P00533); assay: as above
[6] = biological target: rHuman P-Cadherin/Fc Chimera, CF (R&D Systems Cat#861-PC) (human) (UniProt P22223); assay: as above
[7] = biological target: rHuman HGF R/c-MET/Fc Chimera, CF (R&D Systems Cat#358-MT/CF) (human) (UniProt P08581); assay: as above
[8] = biological target: rHuman CD44/Fc Chimera, CF (R&D Systems Cat#3660-CD) (human) (UniProt P16070); assay: as above
[9] = biological target: rHuman Notch-1/Fc Chimera, CF (R&D Systems Cat#3647-TK) (human) (UniProt P46531); assay: ECL multispot (MSD) binding assay, antigen spotted on plate, Fab in solution; blank spot 215
[10] = biological target: rHuman ErbB2/Fc Chimera, CF (R&D Systems Cat#1129-ER) (human) (UniProt P04626); assay: as above
[11] = biological target: rHuman Erythropoietin R/Fc Chimera, CF (R&D Systems Cat#963-ER) (human) (UniProt P19235); assay: as above
[12] = biological target: rHuman IGF-1 sR, CF (R&D Systems Cat#391-GR) (human) (UniProt P08069); assay: as above
[13] = biological target: rHuman EGF R/Fc Chimera, CF (R&D Systems Cat#344-ER) (human) (UniProt P00533); assay: as above
[14] = biological target: rHuman P-Cadherin/Fc Chimera, CF (R&D Systems Cat#861-PC) (human) (UniProt P22223); assay: as above
[15] = biological target: rHuman HGF R/c-MET/Fc Chimera, CF (R&D Systems Cat#358-MT/CF) (human) (UniProt P08581); assay: as above
[16] = biological target: rHuman CD44/Fc Chimera, CF (R&D Systems Cat#3660-CD) (human) (UniProt P16070); assay: as above
[17] = biological target: rHuman Notch-1/Fc Chimera, CF (R&D Systems Cat#3647-TK) (human) (UniProt P46531); assay: ECL multispot (MSD) binding assay, antigen spotted on plate, Fab in solution; blank spot 349
[18] = biological target: rHuman ErbB2/Fc Chimera, CF (R&D Systems Cat#1129-ER) (human) (UniProt P04626); assay: as above
[19] = biological target: rHuman IGF-1 sR, CF (R&D Systems Cat#391-GR) (human) (UniProt P08069); assay: as above
[20] = biological target: rHuman EGF R/Fc Chimera, CF (R&D Systems Cat#344-ER) (human) (UniProt P00533); assay: as above
[21] = biological target: rHuman P-Cadherin/Fc Chimera, CF (R&D Systems Cat#861-PC) (human) (UniProt P22223); assay: as above
[22] = biological target: rHuman HGF R/c-MET/Fc Chimera, CF (R&D Systems Cat#358-MT/CF) (human) (UniProt P08581); assay: as above
[23] = biological target: rHuman CD44/Fc Chimera, CF (R&D Systems Cat#3660-CD) (human) (UniProt P16070); assay: as above
[24] = biological target: rHuman Notch-1/Fc Chimera, CF (R&D Systems Cat#3647-TK) (human) (UniProt P46531); assay: ECL multispot (MSD) binding assay, antigen spotted on plate, Fab in solution; blank spot 306
[25] = biological target: rHuman ErbB2/Fc Chimera, CF (R&D Systems Cat#1129-ER) (human) (UniProt P04626); assay: as above
[26] = biological target: rHuman IGF-1 sR, CF (R&D Systems Cat#391-GR) (human) (UniProt P08069); assay: as above
[27] = biological target: rHuman EGF R/Fc Chimera, CF (R&D Systems Cat#344-ER) (human) (UniProt P00533); assay: as above
[28] = biological target: rHuman P-Cadherin/Fc Chimera, CF (R&D Systems Cat#861-PC) (human) (UniProt P22223); assay: as above
[29] = biological target: rHuman HGF R/c-MET/Fc Chimera, CF (R&D Systems Cat#358-MT/CF) (human) (UniProt P08581); assay: as above
[30] = biological target: rHuman CD44/Fc Chimera, CF (R&D Systems Cat#3660-CD) (human) (UniProt P16070); assay: as above
[31] = biological target: rHuman Notch-1/Fc Chimera, CF (R&D Systems Cat#3647-TK) (human) (UniProt P46531); assay: ECL multispot (MSD) binding assay, antigen spotted on plate, Fab in solution; blank spot 321
[32] = biological target: rHuman ErbB2/Fc Chimera, CF (R&D Systems Cat#1129-ER) (human) (UniProt P04626); assay: as above
[33] = biological target: rHuman IGF-1 sR, CF (R&D Systems Cat#391-GR) (human) (UniProt P08069); assay: as above
[34] = biological target: rHuman EGF R/Fc Chimera, CF (R&D Systems Cat#344-ER) (human) (UniProt P00533); assay: as above
[35] = biological target: rHuman P-Cadherin/Fc Chimera, CF (R&D Systems Cat#861-PC) (human) (UniProt P22223); assay: as above
[36] = biological target: rHuman HGF R/c-MET/Fc Chimera, CF (R&D Systems Cat#358-MT/CF) (human) (UniProt P08581); assay: as above
[37] = biological target: rHuman CD44/Fc Chimera, CF (R&D Systems Cat#3660-CD) (human) (UniProt P16070); assay: as above
[38] = biological target: rHuman Notch-1/Fc Chimera, CF (R&D Systems Cat#3647-TK) (human) (UniProt P46531); assay: ECL multispot (MSD) binding assay, antigen spotted on plate, Fab in solution; blank spot 277
[39] = biological target: rHuman ErbB2/Fc Chimera, CF (R&D Systems Cat#1129-ER) (human) (UniProt P04626); assay: as above
[40] = biological target: rHuman Erythropoietin R/Fc Chimera, CF (R&D Systems Cat#963-ER) (human) (UniProt P19235); assay: as above
[41] = biological target: rHuman IGF-1 sR, CF (R&D Systems Cat#391-GR) (human) (UniProt P08069); assay: as above
[42] = biological target: rHuman EGF R/Fc Chimera, CF (R&D Systems Cat#344-ER) (human) (UniProt P00533); assay: as above
[43] = biological target: rHuman P-Cadherin/Fc Chimera, CF (R&D Systems Cat#861-PC) (human) (UniProt P22223); assay: as above
[44] = biological target: rHuman HGF R/c-MET/Fc Chimera, CF (R&D Systems Cat#358-MT/CF) (human) (UniProt P08581); assay: as above
[45] = biological target: rHuman CD44/Fc Chimera, CF (R&D Systems Cat#3660-CD) (human) (UniProt P16070); assay: as above
[46] = biological target: Recombinant Human DLL4 (delta-like protein 4) (human) (UniProt Q9NR61); assay: ECL (MSD electrochemiluminescence) binding assay, Fab on immobilised recombinant human DLL4
[47] = biological target: Recombinant Human DLL4 (delta-like protein 4) (human) (UniProt Q9NR61); assay: ELISA, Fab on coated recombinant human DLL4, signal minus noise

## Fab VH5-51_IGHD5-18*01>3_IGHJ4*01 G100K/G104T I50A & V3-4_IGLJ1*01
[1]
  ECL signal: 443
[2]
  ECL signal: 925
[3]
  ECL signal: 523
[4]
  ECL signal: 785
[5]
  ECL signal: 794
[6]
  ECL signal: 343
[7]
  ECL signal: 822
[8]
  ECL signal: 632

## Fab VH5-51_IGHD5-18*01>3_IGHJ4*01 G100K/G104T I51A & V3-4_IGLJ1*01
[9]
  ECL signal: 612
[10]
  ECL signal: 1090
[11]
  ECL signal: 497
[12]
  ECL signal: 828
[13]
  ECL signal: 803
[14]
  ECL signal: 432
[15]
  ECL signal: 875
[16]
  ECL signal: 517

## Fab VH5-51_IGHD5-18*01>3_IGHJ4*01 G100K/G104T P53A & V3-4_IGLJ1*01
[17]
  ECL signal: 536
[18]
  ECL signal: 1140
[19]
  ECL signal: 943
[20]
  ECL signal: 976
[21]
  ECL signal: 424
[22]
  ECL signal: 1000
[23]
  ECL signal: 556

## Fab VH5-51_IGHD5-18*01>3_IGHJ4*01 G100K/G104T D55A & V3-4_IGLJ1*01
[24]
  ECL signal: 683
[25]
  ECL signal: 1030
[26]
  ECL signal: 898
[27]
  ECL signal: 729
[28]
  ECL signal: 310
[29]
  ECL signal: 856
[30]
  ECL signal: 606

## Fab VH5-51_IGHD5-18*01>3_IGHJ4*01 G100K/G104T D57A & V3-4_IGLJ1*01
[31]
  ECL signal: 523
[32]
  ECL signal: 1200
[33]
  ECL signal: 982
[34]
  ECL signal: 915
[35]
  ECL signal: 365
[36]
  ECL signal: 1130
[37]
  ECL signal: 600

## Fab VH5-51_IGHD5-18*01>3_IGHJ4*01 G100K/G104T Y52A & V3-4_IGLJ1*01
[38]
  ECL signal: 566
[39]
  ECL signal: 989
[40]
  ECL signal: 584
[41]
  ECL signal: 827
[42]
  ECL signal: 745
[43]
  ECL signal: 334
[44]
  ECL signal: 803
[45]
  ECL signal: 591

## Fab VH5-51_IGHD5-18*01>3_IGHJ4*01 G100K/G104T T58D/K & V3-4_IGLJ1*01
[46]
  ECL signal: 823
[47]
  ELISA (Signal-Noise): 0.03
